Source: patent publication US20200131270A1 (NATIONAL UNIVERSITY CORPORATION HOKKAIDO UNIVERSITY, published 2020)

Columns and labels:
canine CD80-Ig = target: T1, canine CD80-Ig (canine; rabbit); experiment: SPR (Biacore X100): cPD-L1-His captured by anti-histidine antibody on CM5 chip, canine CD80-Ig as analyte
T1 construct: extracellular domain;domain: Fc; also called cCD80-Ig; cCD80

canine PD-1-Ig = target: T2, canine PD-1-Ig (canine; rabbit); experiment: SPR (Biacore X100): cPD-L1-His captured by anti-histidine antibody on CM5 chip, canine PD-1-Ig as analyte
T2 construct: extracellular domain;domain: Fc; also called cPD-1-Ig; cPD-1

B1: canine PD-L1-His (ligand)
chain: FTITVSKDLYVVEYGGNVTMECKFPVEKQLNLFALIVYWEMEDKKIIQFVNGKEDLKVQHSSYSQRAQLLKDQLFLGKAALQITDVRLQDAGVYCCLIGYGGADYKRITLKVHAPYRNISQRISVDPVTSEHELMCQAEGYPEAEVIWTSSDHRVLSGKTTITNSNREEKLFNVTSTLNINATANEIFYCTFQRSGPEENNTAELVIPERLPVPASERTH
Canine CD80-Ig
  Kd: 24.3 nM
Canine PD-1-Ig
  Kd: 25.4 nM
